Results: publication PMC5821459

Target: L1 ORF2p-3xFLAG (ORFeus-Hs, pLD401, WT) (human) (UniProt O00370)
Assay: affinity purification with mass spectrometry; On-bead RNase-sensitivity assay: ORF2p-3xFLAG (pLD401) captured on α-FLAG magnetic medium from HEK-293T_LD extract in 20 mM HEPES-Na pH 7.4, 500 mM NaCl, 1% Triton X-100; medium treated with RNases A and T1 or with BSA, 30 min RT; retained material eluted with LDS; label-swapped SILAC

Sequence of UniProt O00370 (O00370 whole entry): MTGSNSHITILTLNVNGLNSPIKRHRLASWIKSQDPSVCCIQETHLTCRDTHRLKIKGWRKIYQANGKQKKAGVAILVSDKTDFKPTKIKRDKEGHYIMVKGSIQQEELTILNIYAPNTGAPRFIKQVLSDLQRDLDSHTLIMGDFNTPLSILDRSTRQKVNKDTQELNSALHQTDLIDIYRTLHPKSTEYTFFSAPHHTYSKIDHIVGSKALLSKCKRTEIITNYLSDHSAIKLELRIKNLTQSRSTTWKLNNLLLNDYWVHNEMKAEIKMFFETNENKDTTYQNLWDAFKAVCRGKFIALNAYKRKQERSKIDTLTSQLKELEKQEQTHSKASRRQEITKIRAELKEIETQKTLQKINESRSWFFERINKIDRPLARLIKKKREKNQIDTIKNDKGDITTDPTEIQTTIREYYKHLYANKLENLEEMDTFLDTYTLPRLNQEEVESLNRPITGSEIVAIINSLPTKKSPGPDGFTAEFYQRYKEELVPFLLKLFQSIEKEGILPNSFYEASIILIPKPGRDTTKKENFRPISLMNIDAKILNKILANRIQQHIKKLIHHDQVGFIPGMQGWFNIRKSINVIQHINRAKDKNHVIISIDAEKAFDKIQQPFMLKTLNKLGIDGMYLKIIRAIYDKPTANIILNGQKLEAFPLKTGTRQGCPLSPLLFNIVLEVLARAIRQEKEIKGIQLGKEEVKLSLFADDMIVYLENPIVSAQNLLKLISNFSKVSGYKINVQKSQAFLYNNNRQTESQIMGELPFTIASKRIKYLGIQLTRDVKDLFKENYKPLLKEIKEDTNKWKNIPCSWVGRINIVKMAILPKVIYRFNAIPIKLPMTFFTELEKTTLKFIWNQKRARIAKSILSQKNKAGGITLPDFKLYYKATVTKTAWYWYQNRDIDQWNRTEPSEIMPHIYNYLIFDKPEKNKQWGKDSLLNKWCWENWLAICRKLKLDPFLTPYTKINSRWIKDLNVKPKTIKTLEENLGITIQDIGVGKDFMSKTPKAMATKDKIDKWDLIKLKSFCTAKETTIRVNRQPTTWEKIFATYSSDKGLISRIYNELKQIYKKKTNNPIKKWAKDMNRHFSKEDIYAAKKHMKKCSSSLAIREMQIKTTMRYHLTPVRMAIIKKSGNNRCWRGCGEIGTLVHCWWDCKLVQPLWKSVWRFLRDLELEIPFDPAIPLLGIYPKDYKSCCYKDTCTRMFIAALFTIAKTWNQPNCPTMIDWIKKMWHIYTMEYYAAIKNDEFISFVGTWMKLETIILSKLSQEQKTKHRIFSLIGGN

RNase sensitivity relative to that of MOV10: 62%
Substance: Regulator of nonsense transcripts 1 (from UniProt Q92900 1-1129) (natural protein)
